The record followed here is patent publication US8304236B2, “Modified biotin-binding protein” (Japan Tobacco Inc., priority 2008, dated 2012).

Entries after “also recorded” stand apart in the source; their conditions may differ.

The nature of data set [1]: Isoelectric focusing electrophoresis (pI observed). The format is physicochemical. To be noted: pH 3 to 10 gel. The method, then:
The isoelectric point of each low-pI TM2 was measured by isoelectric focusing electrophoresis using an XCell SureLock Mini-Cell (Invitrogen). In accordance with the instruction, each low-pI TM2 (500 ng) and an IEF sample buffer (pH 3 to 10 (2×), Invitrogen) were mixed and were added to a polyacrylamide gel (pH 3 to 10, IEF Gel, Invitrogen) at a pH ranging from 3 to 10, followed by electrophoresis at a variable voltage of 100 V for 1 hour, 200 V for 1 hour, and 500 V for 45 minutes in this order.
After the electrophoresis, the gel was shaken in a blotting buffer (0.7% acetic acid) for 10 minutes and then was transferred onto a PVDF membrane at 10 V for 1 hour using an XCell ll Blot Module (Invitrogen). The PVDF membrane was subjected to reaction with anti-TM2 rabbit antibody (PCT/W2006/326260) serving as a primary antibody and with alkaline phosphate-labeled anti-rabbit IgG antibody (BIO-RAD) serving as a secondary antibody, followed by detection of bands with Alkaline Phosphatase Substrate Kit II
The isoelectric point of the high-affinity TM2 was measured by isoelectric focusing electrophoresis using an XCell SureLock Mini-Cell (Invitrogen). […] The electric point of TM2 D40N having replacement of the […] amino acid was higher than that of the wild type TM2 also in the isoelectric focusing electrophoresis.
The isoelectric point of HALU TM2 was measured by isoelectric focusing electrophoresis using an XCell SureLock Mini-Cell (Invitrogen). In accordance with the instruction, bands of each HALU TM2 (4 μg) were detected by CBB staining. […] The observed isoelectric point of TM2 D40N was 9.7, and was reduced to 8.9 after introduction of mutation of R104E and was reduced to 7.3 to 7.5 after further introduction of mutation of K141E.

The test system of data set [2] is human serum protein. Briefly: Non-specific adsorption of low-pI TM2 to human serum protein-immobilized magnetic beads. The format is binding. To be noted: for decrease of adsorption to human serum protein compared to the wild type TM2 / non-specific binding to human serum protein compared to TM2: FIG. 1; for non-specific binding and adsorption, % of that of the wild type TM2: summary of Example 1, paragraphs 1-9) and 1-11); for Non-specific binding of serum protein (%): wild type TM2 = 100. The method, then: In this embodiment, non-specific binding to human serum was investigated as non-specific adsorption of low-pI TM2 to serum protein-immobilized magnetic beads. Specifically, in order to investigate the non-specific binding of low-pI TM2, the amount of low-pI TM2 adsorbed to magnetic beads to which human serum protein was covalently bonded was measured. TM2 K26A, TM2 K73Q, TM2 R104E, TM2 K141E, and TM2 R104EK141E, which were highly expressed in Escherichia coli, were used as the low-pI TM2 to be investigated.
Human serum protein and magnetic beads were bound to each other as follows. Magnetic beads having surfaces coated with carboxyl groups (Dynabeads M-270 Carboxylic Acid, Dynal, 210 μL) were washed with 0.01 N sodium hydroxide (210 μL) for 10 minutes and then with ultrapure water (210 μL) for 10 minutes three times. To the washed magnetic beads, 1-ethyl-3-(3-dimethylaminopropyl)carbodiimide hydrochloride (EDC, PIERCE) dissolved in cooled ultrapure water was added into a final concentration of 0.2 M, and the mixture was shaken at room temperature for 30 minutes. Then, the magnetic beads were washed with cooled ultrapure water (210 μL) and then with 50 mM MES buffer (pH 5.0, 210 μL).
To the magnetic beads, 1 mg/mL human serum protein (CHEMICON, 210 μL) dialyzed with 50 mM MES buffer (pH 5.0) was added. The mixture was shaken at room temperature for 30 minutes to covalently bind the human serum protein to the magnetic beads. The magnetic beads were collected with a magnet to remove the supernatant. The unreacted active groups on the beads were eliminated with 50 mM tris buffer (pH 7.0, 210 μL), and then the magnetic beads were blocked with a PBS buffer (420 μL) containing 0.5% BSA and 0.1% Tween 20. The magnetic beads were suspended in a PBS buffer (210 μL) to obtain human serum protein-immobilized magnetic beads.
The magnetic beads (7 μL) and 0.56 μg/mL of each low-pI TM2 (100 μL) were mixed for reaction at room temperature for 1 hour. The magnetic beads were collected with a magnetic, and the supernatant was removed. After washing with 20 mM potassium phosphate buffer (500 μL) containing 500 mM sodium chloride, the magnetic beads were mixed with 20 μL of 2×SDS sample buffer (250 mM Tris-HCl, pH 6.8, 20% 2-mercaptoethanol, 20% SDS, 20% glycerol), followed by heating at 95° C. for 20 minutes to dissociate the low-pI TM2 from the magnetic beads.
This sample was subjected to SDS-PAGE and then western blotting analysis to determine the amount of the low-pI TM2. Anti-tamavidin 2 rabbit antibody and alkaline phosphatase-labeled anti-rabbit IgG goat antibody were used as the primary antibody and the secondary antibody, respectively. The bands were detected with Alkaline Phosphatase Substrate Kit II <VECTOR Black> (VECTRO) and were quantified with Las-3000 (FUJIFILM).

Data set [3] can be described thus: Biotin-binding test (Biacore 3000, biotin-LC-BSA immobilized). The method, then:
High-purity BSA (Sigma, 2 mg) and NHS-LC-biotin (Pierce, 1 mg) were dissolved in 50 mM sodium borate (pH 8.0, 1 mL) and were incubated at 4° C. for 2 hours. The solution was put into a dialysis tube (MWCO 6-8,000) and was dialyzed with 50 mM sodium carbonate (pH 6.7) at 4° C. overnight. The resulting biotin-LC-BSA conjugate (MW: 67 kDa, 30 μM) was used as a ligand for a Biacore (registered trademark) biosensor.
Biotin-LC-BSA and BSA serving as a negative control were immobilized on CM5 sensor chips by amine coupling method. The amount for immobilization was adjusted to about 200 RU. The chips to which BSA was immobilized were disposed in flow cells 1 and 3, while the chips to which biotin-LC-BSA was immobilized were disposed in flow cells 2 and 4.
Accordingly, seven step measurement (3.125, 6.25, […], 25, 50, 100, and 200 nM) was conducted from the lowest concentration, without recycling steps. The data of BSA as reference was deducted from the data of BSA-LC-biotin. The measurement was performed at 25° C. The resulting sensorgrams were subjected to reaction kinetics analysis using analysis software BIAevaluation ver. 4.1 with a 1:1 binding model to calculate the binding rate constant (ka) and the dissociation rate constant (kd). The dissociation constant (KD) was determined from kd/ka. In the case where no recycling step is employed, the Rmax (maximum amount of binding analyte) decreases at each measurement. Accordingly, in the analysis, the Rmax was calculated by conducting local fitting for each concentration, and only the data of analyte concentrations that were approximated to the 1:1 binding model was employed.
TM2 and HALU TM2 used as analytes were prepared by purification with 2-iminobiotin agarose in accordance with a common method and dialysis with 20MM KPi (pH 7) overnight. The analytes were each adjusted to about 50 μg/mL in 10 mM acetate buffer (pH 5, Biacore).
The immobilization of the ligand and measurement and analysis of specific interaction with the analytes were conducted as in paragraph 2-7-2).
(Surface plasmon resonance follows binding to a sensor surface in real time, without labels.)

B1: TM2 K26A: TM2 mutant in which lysine at position 26 was replaced with alanine; SEQ ID NO: 4 (protein)
chain: MSDVQSSLTGTWYNELNSKMELTANADGTLTGKYLSKVGDVYVPYPLSGRYNLQPPAGQGVALGWAVSWENSKIHSATTWSGQFFSESSPVILTQWLLSSSTARGDVWESTLVGNDSFTKTAPTEQQIAHAQLHCRAPRLK
modifications: Synthetic TM2 K26A
Molecule B1 showed a pI observed in data set [1] of 7.3 to 7.6. Moreover, in data set [2], the “decrease of adsorption to human serum protein compared to the wild type TM2” value (from here on “decrease of adsorption”) worked out at 30%; the “non-specific binding to human serum protein compared to TM2” value (shortened to “non-specific binding … compared to TM2”) is given as “significantly low”; the “non-specific binding and adsorption, % of that of the wild type TM2” value (from here on “non-specific binding and adsorption, %”) is on record as “about 60%”; the “Non-specific binding of serum protein (%)” value (“Non-specific binding … (%)” for short) is recorded as 68%.

B2: TM2 K33TK37A: TM2 mutant, lysine 33 replaced with threonine and lysine 37 with alanine; SEQ ID NO: 12 (protein)
chain: MSDVQSSLTGTWYNELNSKMELTANKDGTLTGTYLSAVGDVYVPYPLSGRYNLQPPAGQGVALGWAVSWENSKIHSATTWSGQFFSESSPVILTQWLLSSSTARGDVWESTLVGNDSFTKTAPTEQQIAHAQLHCRAPRLK
modifications: Synthetic TM2 K33TK37A
As for B2, the pI observed in data set [1] came to 6.2.

B3: TM2 K141E: TM2 mutant in which lysine at position 141 was replaced with glutamic acid; SEQ ID NO: 10 (protein)
chain: MSDVQSSLTGTWYNELNSKMELTANKDGTLTGKYLSKVGDVYVPYPLSGRYNLQPPAGQGVALGWAVSWENSKIHSATTWSGQFFSESSPVILTQWLLSSSTARGDVWESTLVGNDSFTKTAPTEQQIAHAQLHCRAPRLE
modifications: Synthetic TM2 K141E
Take B3: the pI observed in data set [1] fell in the range of 6.6 to 7.2. In data set [2], the “decrease of adsorption” value is 40%; the “non-specific binding … compared to TM2” value is “significantly low”; the “non-specific binding and adsorption, %” value is recorded as “about 60%”; the “Non-specific binding … (%)” value is 58%.

B4: TM2 K33TK37AR104E: TM2 mutant, lysine 33 to threonine, lysine 37 to alanine, arginine 104 to glutamic acid; SEQ ID NO: 14 (protein)
chain: MSDVQSSLTGTWYNELNSKMELTANKDGTLTGTYLSAVGDVYVPYPLSGRYNLQPPAGQGVALGWAVSWENSKIHSATTWSGQFFSESSPVILTQWLLSSSTAEGDVWESTLVGNDSFTKTAPTEQQIAHAQLHCRAPRLK
modifications: Synthetic TM2 K33TK37AR104E
As for B4, in data set [1], the pI observed lay within 5.9 to 6.0.

B5: TM2 K19T: TM2 mutant in which lysine at position 19 is replaced with threonine; SEQ ID NO: 18 (protein)
chain: MSDVQSSLTGTWYNELNSTMELTANKDGTLTGKYLSKVGDVYVPYPLSGRYNLQPPAGQGVALGWAVSWENSKIHSATTWSGQFFSESSPVILTQWLLSSSTARGDVWESTLVGNDSFTKTAPTEQQIAHAQLHCRAPRLK
modifications: Synthetic TM2 K19T
Take B5: the pI observed in data set [1] is given as 6.6 to 7.5.

B6: TM2 R104E: TM2 mutant in which arginine at position 104 was replaced with glutamic acid; SEQ ID NO: 8 (protein)
chain: MSDVQSSLTGTWYNELNSKMELTANKDGTLTGKYLSKVGDVYVPYPLSGRYNLQPPAGQGVALGWAVSWENSKIHSATTWSGQFFSESSPVILTQWLLSSSTAEGDVWESTLVGNDSFTKTAPTEQQIAHAQLHCRAPRLK
modifications: Synthetic TM2 R104E
In data set [1], B6 had a pI observed of 7.0 to 7.5. Further, in data set [2], the “decrease of adsorption” value is 10% and the “Non-specific binding … (%)” value turned out to be 90%.

B7: TM2 K73Q: TM2 mutant in which lysine at position 73 was replaced with glutamine; SEQ ID NO: 6 (protein)
chain: MSDVQSSLTGTWYNELNSKMELTANKDGTLTGKYLSKVGDVYVPYPLSGRYNLQPPAGQGVALGWAVSWENSQIHSATTWSGQFFSESSPVILTQWLLSSSTARGDVWESTLVGNDSFTKTAPTEQQIAHAQLHCRAPRLK
modifications: Synthetic TM2 K73Q
The molecule B7 yielded a pI observed in data set [1] of 7.7. In data set [2], the “decrease of adsorption” value was 40%; the “non-specific binding … compared to TM2” value is reported as “significantly low”; the “non-specific binding and adsorption, %” value was “about 60%”; the “Non-specific binding … (%)” value turned out to be 55%.

B8: TM2 D40N: TM2 mutant in which aspartic acid at position 40 was replaced with asparagine; SEQ ID NO: 20 (protein)
chain: MSDVQSSLTGTWYNELNSKMELTANKDGTLTGKYLSKVGNVYVPYPLSGRYNLQPPAGQGVALGWAVSWENSKIHSATTWSGQFFSESSPVILTQWLLSSSTARGDVWESTLVGNDSFTKTAPTEQQIAHAQLHCRAPRLK
modifications: Synthetic TM2 D40N
Molecule B8 displayed a pI observed in data set [1] of 9.7. For the same molecule, the “biotin-binding ability (affinity) compared to the wild type TM2” value in data set [3] is reported as “increased; also recorded: enhanced”. In addition, the “dissociation from biotin-LC-BSA” value in data set [3] (dissociation monitored for 60 minutes) is “not dissociated”.
